Target: T1, His6-Dsk2 (S. cerevisiae, UniProt P48510 1-373)
T1 sequence (looked up): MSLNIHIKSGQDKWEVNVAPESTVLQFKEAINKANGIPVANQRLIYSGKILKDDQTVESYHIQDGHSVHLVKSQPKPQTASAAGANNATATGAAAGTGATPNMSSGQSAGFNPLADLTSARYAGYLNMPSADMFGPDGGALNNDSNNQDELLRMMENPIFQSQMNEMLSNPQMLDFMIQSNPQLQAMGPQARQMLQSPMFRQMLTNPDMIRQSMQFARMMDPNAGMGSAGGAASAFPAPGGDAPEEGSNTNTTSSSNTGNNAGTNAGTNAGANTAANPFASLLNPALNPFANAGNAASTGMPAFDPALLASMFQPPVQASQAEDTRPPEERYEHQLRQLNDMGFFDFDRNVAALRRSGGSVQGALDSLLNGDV
Experiment: far-Western, overlay or dot blot

binding result: binds
B1: recombinant Rpn10, full length (natural protein, S. cerevisiae, UniProt P38886 1-268, looked up)
chain: MVLEATVLVIDNSEYSRNGDFPRTRFEAQIDSVEFIFQAKRNSNPENTVGLISGAGANPRVLSTFTAEFGKILAGLHDTQIEGKLHMATALQIAQLTLKHRQNKVQHQRIVAFVCSPISDSRDELIRLAKTLKKNNVAVDIINFGEIEQNTELLDEFIAAVNNPQEETSHLLTVTPGPRLLYENIASSPIILEEGSSGMGAFGGSGGDSDANGTFMDFGVDPSMDPELAMALRLSMEEEQQRQERLRQQQQQQDQPEQSEQPEQHQDK

Reference: article PMC2643056 (Molecular cell, 2008)
